Data published in the supplement of paper PMC10724198.
± gives the standard deviation of the averaged measurements.

Test system: Saccharomyces cerevisiae
Test: protein stability index of tFT-peptide fusion (C-terminal peptide) (PSI (0-1 scale)); higher = more stable (slower turnover)
Settings: temperature: 30 C
Method: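 MPS profiling in S. cerevisiae of the yeast C-terminome library: the last 12 aa of each annotated ORF are fused to the C-terminus of a sfGFP-mCherry timer, after a GGGS linker. Cells are FACS-sorted into 8 mCherry/sfGFP bins and deep-sequenced. PSI runs from 0 (unstable) to 1 (stable); wild type and das1Δ backgrounds, two technical replicates each.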

[1] = genetic background: das1 deletion

| Sequence | protein stability index [1] | protein stability index (genetic background: wild type) |
| --- | --- | --- |
| LNKEALKHNMLK [HSH49 C-terminal 12 aa] | 0.691 ± 0.048 | 0.695 ± 0.092 |
| NLAGRKNSRDNE [LOT5 C-terminal 12 aa] | 0.681 ± 0.017 | 0.6772 ± 0.0027 |
| NMGGWVLGGNAR [SND1 C-terminal 12 aa] | 0.721 ± 0.023 | 0.6926 ± 0.0057 |
| AQAEVIRGLQSL [CAP2 C-terminal 12 aa] | 0.682 ± 0.023 | 0.672 ± 0.03 |
| QAKLTAATNAKQ [PDC1 C-terminal 12 aa] | 0.698 ± 0.018 | 0.716 ± 0.035 |
| PTIVGGLYYQRP [AAR2 C-terminal 12 aa] | 0.7 ± 0.0021 | 0.696 ± 0.012 |
| YTDLASIASGRD [SHS1 C-terminal 12 aa] | 0.691 ± 0.016 | 0.714 ± 0.092 |
| SFDVELVGLKFV [YHL019W-A C-terminal 12 aa] | 0.7172 ± 0.005 | 0.695 ± 0.029 |
| WARRSFSSYDLC [GID11 C-terminal 12 aa] | 0.7053 ± 0.0036 | 0.694 ± 0.011 |
| KKLHEEYFGEDK [CRS1 C-terminal 12 aa] | 0.673 ± 0.031 | 0.646 ± 0.032 |
| ASVRIFLYPSNI [RPL33A C-terminal 12 aa] | 0.7 ± 0.013 | 0.697 ± 0.017 |
| IQKDSMVHPGKK [VAC7 C-terminal 12 aa] | 0.6694 ± 0.0052 | 0.663 ± 0.034 |
| EAASDEHFSRVV [YGL185C C-terminal 12 aa] | 0.709 ± 0.02 | 0.733 ± 0.021 |
| HTMENIFAGKLD [CUE4 C-terminal 12 aa] | 0.7177 ± 0.0019 | 0.69 ± 0.011 |
| DIFSRFSIILKC [YPR136C C-terminal 12 aa] | 0.413 ± 0.017 | 0.281 ± 0.012 |
| IDSIDDLVDSDT [NPP1 C-terminal 12 aa] | 0.6907 ± 0.0066 | 0.685 ± 0.015 |
| TEPESDTEVETS [WHI5 C-terminal 12 aa] | 0.676 ± 0.01 | 0.662 ± 0.013 |
| FFTIEKYSVRRS [YOL013W-A C-terminal 12 aa] | 0.7332 ± 0.0047 | 0.681 ± 0.01 |
| SLNQPELINFKS [IZH4 C-terminal 12 aa] | 0.714 ± 0.017 | 0.71 ± 0.046 |
| RKELEKGKKNSK [YLR363W-A C-terminal 12 aa] | 0.694 ± 0.025 | 0.703 ± 0.054 |
| YLRRFFEVTSLV [EMP24 C-terminal 12 aa] | 0.552 ± 0.011 | 0.338 ± 0.03 |

| Sequence | protein stability index [1] | protein stability index (genetic background: wild type) |
| --- | --- | --- |
| AAISFKEAPRSD [ANB1 C-terminal 12 aa] | 0.723 ± 0.037 | 0.694 ± 0.036 |
| ISFDLCGKQNFQ [MTC7 C-terminal 12 aa] | 0.705 ± 0.056 | 0.719 ± 0.044 |
| TPLPGLSWPFNE [YIL014C-A C-terminal 12 aa] | 0.74 ± 0.021 | 0.74 ± 0.061 |
| ALGRKTSNGGRI [MKS1 C-terminal 12 aa] | 0.7161 ± 0.004 | 0.724 ± 0.049 |
| PGGGGGSPLIFL [YHR165W-A C-terminal 12 aa] | 0.7299 ± 0.0012 | 0.728 ± 0.02 |
| EDVKEEESKVGA [IOC4 C-terminal 12 aa] | 0.691 ± 0.033 | 0.664 ± 0.0082 |
| VTQILYTPIESS [SIP2 C-terminal 12 aa] | 0.679 ± 0.028 | 0.696 ± 0.03 |
| NSARKRVFGTVI [DIP2 C-terminal 12 aa] | 0.6997 ± 0.0036 | 0.655 ± 0.0069 |
| HELIKKRWDDRK [NCE101 C-terminal 12 aa] | 0.712 ± 0.016 | 0.679 ± 0.018 |
| TEKDSTTTNYRK [YJL218W C-terminal 12 aa] | 0.702 ± 0.028 | 0.698 ± 0.034 |
| PKYKEEESRSAV [RSN1 C-terminal 12 aa] | 0.678 ± 0.035 | 0.668 ± 0.019 |
| LIAEILLARNLI [HOM2 C-terminal 12 aa] | 0.71 ± 0.0084 | 0.662 ± 0.007 |
| YLKRCCYHPMQN [YIL020C-A C-terminal 12 aa] | 0.72572 ± 0.00065 | 0.679 ± 0.035 |
| FIRFAINIHTFI [YJL009W C-terminal 12 aa] | 0.46 ± 0.0057 | 0.377 ± 0.011 |
| SLSSLSNQRCTT [YCR023C C-terminal 12 aa] | 0.709 ± 0.011 | 0.68 ± 0.052 |
| PPNSTSTNPYSS [SKG3 C-terminal 12 aa] | 0.729 ± 0.015 | 0.7181 ± 0.0014 |
| HLYSTLLFHSVN [RRG8 C-terminal 12 aa] | 0.728 ± 0.013 | 0.543 ± 0.033 |
| LLNSRATQDVVC [VMA3 C-terminal 12 aa] | 0.6342 ± 0.0054 | 0.66 ± 0.0053 |
| FVNNKGNFKDLK [ARG3 C-terminal 12 aa] | 0.722 ± 0.025 | 0.686 ± 0.025 |
| LSRVGELYLSTD [SEC7 C-terminal 12 aa] | 0.683 ± 0.02 | 0.692 ± 0.038 |
| RQFKEILTVKEE [RRP40 C-terminal 12 aa] | 0.6732 ± 0.0037 | 0.687 ± 0.013 |

| Sequence | protein stability index [1] | protein stability index (genetic background: wild type) |
| --- | --- | --- |
| ARLVSNEPILLD [CWC23 C-terminal 12 aa] | 0.725 ± 0.026 | 0.704 ± 0.053 |
| VKDRPRGKDARL [RML2 C-terminal 12 aa] | 0.727 ± 0.058 | 0.805 ± 0.029 |
| NVGYMHTQPQQR [TCO89 C-terminal 12 aa] | 0.71 ± 0.0077 | 0.67 ± 0.016 |
| GLEKKKKKQNNQ [NPR1 C-terminal 12 aa] | 0.69 ± 0.015 | 0.662 ± 0.0018 |
| FGYESTDQILKL [NNR1 C-terminal 12 aa] | 0.738 ± 0.0047 | 0.708 ± 0.054 |
| AWDIKQTLDSLA [CHO2 C-terminal 12 aa] | 0.709 ± 0.023 | 0.697 ± 0.038 |
| GEVVKTIIFGPE [SOR1 C-terminal 12 aa] | 0.7 ± 0.017 | 0.696 ± 0.029 |
| TCEKSKCNCEKC [CRS5 C-terminal 12 aa] | 0.682 ± 0.012 | 0.69 ± 0.082 |
| LIGFGNQVSKAL [BUD25 C-terminal 12 aa] | 0.703 ± 0.03 | 0.723 ± 0.027 |
| LQFILPSMNLAN [GPB1 C-terminal 12 aa] | 0.692 ± 0.0087 | 0.656 ± 0.015 |
| GKSSKKKNRSRK [SSH4 C-terminal 12 aa] | 0.726 ± 0.052 | 0.692 ± 0.018 |
| ECPRFSNKHGRN [YDR169C-A C-terminal 12 aa] | 0.701 ± 0.0084 | 0.681 ± 0.014 |
| KVYDELKKQGLV [PRP9 C-terminal 12 aa] | 0.693 ± 0.017 | 0.676 ± 0.0062 |
| PSYPSEKISYSK [ADO1 C-terminal 12 aa] | 0.7017 ± 0.0027 | 0.726 ± 0.065 |
| NWSNQQINVQSS [PHM8 C-terminal 12 aa] | 0.7172 ± 0.0032 | 0.674 ± 0.018 |
| TVPEFPAPIFPN [YDL159C-B C-terminal 12 aa] | 0.72 ± 0.019 | 0.689 ± 0.0079 |
| YDKESDDRKCCL [CTR3 C-terminal 12 aa] | 0.681 ± 0.0083 | 0.675 ± 0.034 |
| FSFSIFFFFCLA [YFR035C C-terminal 12 aa] | 0.291 ± 0.017 | 0.285 ± 0.0066 |
| TTVDRTGNGAFW [YLR154C-H C-terminal 12 aa] | 0.703 ± 0.017 | 0.723 ± 0.036 |
| FVFALSYPYEEI [ALG2 C-terminal 12 aa] | 0.713 ± 0.011 | 0.693 ± 0.038 |
| DGGVKRIRVWGY [DAL2 C-terminal 12 aa] | 0.706 ± 0.024 | 0.703 ± 0.054 |

| Sequence | protein stability index [1] | protein stability index (genetic background: wild type) |
| --- | --- | --- |
| VTGSVPAYCDDD [ART5 C-terminal 12 aa] | 0.6825 ± 0.0031 | 0.694 ± 0.011 |
| RAVTKYSSSTQA [HTB1 C-terminal 12 aa] | 0.7067 ± 0.0046 | 0.695 ± 0.034 |
| YMIRFIANGYYY [SWR1 C-terminal 12 aa] | 0.613 ± 0.014 | 0.614 ± 0.009 |
| EWSSGIPHPEMI [ARA2 C-terminal 12 aa] | 0.7305 ± 0.0044 | 0.667 ± 0.018 |
| EFIFRESRKHNV [ERP3 C-terminal 12 aa] | 0.728 ± 0.058 | 0.71 ± 0.061 |
| KGDGKFWSSKKD [OM45 C-terminal 12 aa] | 0.709 ± 0.0022 | 0.6744 ± 0.0029 |
| VLDQITGDLKLY [PTH2 C-terminal 12 aa] | 0.691 ± 0.014 | 0.6285 ± 0.0052 |
| FMKELEMSEESD [RAD4 C-terminal 12 aa] | 0.693 ± 0.015 | 0.738 ± 0.028 |
| DASVEQNILAVL [RQT4 C-terminal 12 aa] | 0.70427 ± 0.00032 | 0.6904 ± 0.0037 |
| LKITDDLARKGF [TGL2 C-terminal 12 aa] | 0.7205 ± 0.0035 | 0.666 ± 0.0096 |
| ELLYIIDHLSEL [BTS1 C-terminal 12 aa] | 0.693 ± 0.023 | 0.67 ± 0.015 |
| LRKKQVKKKVKS [SLX8 C-terminal 12 aa] | 0.6885 ± 0.0062 | 0.716 ± 0.061 |
| AKDFLEKRGISK [PAM18 C-terminal 12 aa] | 0.711 ± 0.0047 | 0.705 ± 0.023 |
| YMKHLLECRSLW [PCD1 C-terminal 12 aa] | 0.733 ± 0.019 | 0.6945 ± 0.00077 |
| QQQQQQQQQQQQ [PUB1 C-terminal 12 aa] | 0.71 ± 0.029 | 0.672 ± 0.052 |
| SYEIVKNGHKNS [APC2 C-terminal 12 aa] | 0.6772 ± 0.0007 | 0.687 ± 0.018 |
| LYAQLRENGLVP [SNU114 C-terminal 12 aa] | 0.695 ± 0.035 | 0.683 ± 0.038 |
| RSRSINGDWRKD [PAN5 C-terminal 12 aa] | 0.6835 ± 0.0046 | 0.6967 ± 0.0028 |
| SIDELETEISTW [BCP1 C-terminal 12 aa] | 0.718 ± 0.015 | 0.6932 ± 0.0068 |
